Assay results: US8802414B2, “Methods and materials for reducing biofilms” (priority 2007, dated 2014)

B1: Proteinase K: protease (Roche Applied Science), 100 μg/mL in 10 mM Tris-HCl pH 7.5 (protein, UniProt P06873 106-384, looked up)
Proteinase K: AAQTNAPWGLARISSTSPGTSTYYYDESAGQGSCVYVIDTGIEASHPEFEGRAQMVKTYYYSSRDGNGHGTHCAGTVGSRTYGVAKKTQLFGVKVLDDNGSGQYSTIIAGMDFVASDKNNRNCPKGVVASLSLGGGYSSSVNSAAARLQSSGVMVAVAAGNNNADARNYSPASEPSVCTVGASDRYDRRSSFSNYGSVLDIFGPGTSILSTWIGGSTRSISGTSMATPHVAGLAAYLMTLGKTTAASACRYIADTANKGDLSNIPFGTVNLLAYNNYQA
B2: heat-inactivated proteinase K: proteinase K inactivated by boiling for 40 minutes (protein, UniProt P06873 106-384, looked up)
Proteinase K: B1 Proteinase K
modifications: heat-inactivated
B3: thermolysin: protease (Sigma-Aldrich), 100 μg/mL in 10 mM Tris-HCl pH 7.5 (protein, UniProt P00800 233-548, looked up)
Thermolysin: ITGTSTVGVGRGVLGDQKNINTTYSTYYYLQDNTRGNGIFTYDAKYRTTLPGSLWADADNQFFASYDAPAVDAHYYAGVTYDYYKNVHNRLSYDGNNAAIRSSVHYSQGYNNAFWNGSQMVYGDGDGQTFIPLSGGIDVVAHELTHAVTDYTAGLIYQNESGAINEAISDIFGTLVEFYANKNPDWEIGEDVYTPGISGDSLRSMSDPAKYGDPDHYSKRYTGTQDNGGVHINSGIINKAAYLISQGGTHYGVSVVGIGRDKLGKIFYRALTQYLTPTSNFSQLRAAAVQSATDLYGSTSQEVASVKQAFDAVGVK

Key:
Test in all cases: Microtiter plate biofilm detachment assay
[1] = tested on: pre-formed biofilms of S. carnosus TM300+pCN27; format: cell-based, Staphylococcus carnosus; conditions: 2 hours at 37° C.; safranin OD492
[2] = tested on: pre-formed S. lugdunensis biofilms; format: cell-based, Staphylococcus lugdunensis; conditions: 2 hours at 37° C.; safranin OD492; 15 clinical isolates
Experimental: 40 mM sodium metaperiodate (NaIO4, Sigma-Aldrich) in water, 40 μg/mL purified recombinant dispersin B (obtained from Kane Biotech Inc., Winnipeg, Manitoba, Canada) in sodium phosphate buffer (50 mM sodium phosphate (pH 5.8), 100 mM NaCl), 100 μg/mL proteinase K (Roche Applied Science) in 10 mM Tris-HCl pH 7.5, 10 U/mL trypsin (Promega Corp., Madison, Wis.) in 10 mM Tris-HCl pH 7.5, 100 μg/mL chymotrypsin (Sigma-Aldrich) in 10 mM Tris-HCl pH 7.5, and 100 μg/mL thermolysin (Sigma-Aldrich) in 10 mM Tris-HCl pH 7.5 were tested for their ability to detach pre-formed S. lugdunensis biofilms from polystyrene microtiter plate wells. For certain experiments, proteinase K was inactivated by boiling for 40 minutes.
Biofilms grown in TSBgluc1% were formed in wells of microtiter plates and washed twice with deionized water, as described above for the microtiter plate biofilm formation assay. 100 μL of NaIO4, enzyme, or suitable control was carefully added so as not to mechanically detach biofilms on the bottoms of wells. Plates were incubated at 37° C. for 2 hours, and contents of wells were discarded and washed twice with deionized water. Plates were air-dried overnight, stained with 0.1% safranin for 1 minute, and processed as described above to quantify the amount of stained biofilm remaining after treatment, relative to treatment with the control reagent. Four wells were measured for each treatment condition. Assays were repeated two or three times on separate days with similar results.

[3] = tested on: pre-formed biofilms of S. epidermidis RP62A; format: cell-based, Staphylococcus epidermidis; conditions: 2 hours at 37° C.; safranin OD492

Molecule	biofilm detachment compared to buffer [1]	biofilm detachment compared to buffer [2]	biofilm detachment compared to buffer [3]
B1	no effect	completely removed	no effect
B2		detachment effect was found to be abolished	
B3		detach S. lugdunensis biofilms selectively	
